Measured values published in paper PMC8162780.

Tests used:
[1] = substrate: OCC(O)COc1ccccc1; assay: purified protein, by the assay type; conditions: 30.0 °C
purified protein [2] = substrate: OCC(O)CO; assay: purified protein; assay type: biochemical, Geobacillus stearothermophilus; conditions: 1 mM NAD+, 100 mM sodium phosphate pH 7, 30 °C, free enzyme
purified protein [3] = substrate: CCOCC(O)CO; assay: purified protein; assay type: biochemical, Geobacillus stearothermophilus; conditions: 1 mM NAD+, 100 mM sodium phosphate pH 7, 30 °C, free enzyme
purified protein [4] = substrate: OCC(O)COc1ccccc1; assay: purified protein; assay type: biochemical, Geobacillus stearothermophilus; conditions: 1 mM NAD+, 100 mM sodium phosphate pH 7, 30 °C, free enzyme
purified protein [5] = substrate: OCC(O)COCC(F)(F)F; assay: purified protein; assay type: biochemical, Geobacillus stearothermophilus; conditions: 1 mM NAD+, 100 mM sodium phosphate pH 7, 30 °C, free enzyme

B1: BsGlyDH (GlyDH from Bacillus stearothermophilus) (Geobacillus stearothermophilus) (protein)
chain: MAAERVFISPAKYVQGKNVITKIANYLEGIGNKTVVIADEIVWKIAGHTIVNELKKGNIAAEEVVFSGEASRNEVERIANIARKAEAAIVIGVGGGKTLDTAKAVADELDAYIVIVPTAASTDAPTSALSVIYSDDGVFESYRFYKKNPDLVLVDTKIIANAPPRLLASGIADALATWVEARSVIKSGGKTMAGGIPTIAAEAIAEKCEQTLFKYGKLAYESVKAKVVTPALEAVVEANTLLSGLGFESGGLAAAHAIHNGFTALEGEIHHLTHGEKVAFGTLVQLALEEHSQQEIERYIELYLSLDLPVTLEDIKLKDASREDILKVAKAATAEGETIHNAFNVTADDVADAIFAADQYAKAYKEKHRK
Protein B1 has a Km [1] of 6.6 mM, a Km (purified protein [2]) of 50 ± 3 mM and a Vmax (purified protein [2]) of 1.4 µmol/min/mg. The kcat (purified protein [2]) was 7.4 ± 0.2 s⁻¹, the kcat/Km (purified protein [2]) was 148 M⁻¹ s⁻¹ and the Km (purified protein [3]) was 13.4 ± 0.4 mM. It also gave a Vmax (purified protein [3]) of 0.036 µmol/min/mg, a kcat (purified protein [3]) of 0.19 ± 0.003 s⁻¹ and a kcat/Km (purified protein [3]) of 14 M⁻¹ s⁻¹. For the same protein, the Km (purified protein [4]) was 7 ± 2 mM, the Vmax (purified protein [4]) was 0.14 µmol/min/mg and the kcat (purified protein [4]) was 0.7 ± 0.1 s⁻¹. It also gave a kcat/Km (purified protein [4]) of 112 M⁻¹ s⁻¹, a Km (purified protein [5]) of 78 ± 8 mM and a Vmax (purified protein [5]) of 0.06 µmol/min/mg. The kcat (purified protein [5]) was 0.32 ± 0.01 s⁻¹ and the kcat/Km (purified protein [5]) was 4 M⁻¹ s⁻¹.
